This sample holds only a part of the variants without activity.

The chains are these.
B1: TPR 5TU (parent)
chain: GGAUCUUCUCGAUCUAACAAAAAAGACAAAUCUGCCACAAAGCUUGAGAGCAUCUUCGGAUGCAGAGGCGGCAGCCUUCGGUGGCGCGAUAGCGCCAACGUUCUCAACUAUGACACGCAAAACGCGUGCUCCGUUGAAUGGAGUUUAUCAUG

This data set covers variants of B1. Briefly: polymerase ribozyme fitness, log enrichment relative to wild type (log ratio); higher = more active; in vitro selection for triplet polymerase activity. In a few lines:
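In triplicate, a single round of in vitro selection was run on each mutant library, PCR-built and transcribed, covering one subunit of a heterodimeric triplet polymerase ribozyme. Frozen incubation at −7 °C followed annealing with a biotinylated primer, partner subunit and triplets, and extended constructs were then gel-excised, streptavidin-captured and taken through RT-PCR. Fitness is the logarithm of genotype enrichment over wild-type enrichment, from inverse-variance-weighted replicate averages of Illumina-sequenced inputs and outputs. […] only genotypes with ≥10 input reads and ≥1 read per output were kept.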
On to A20C U61G C75U U146A, for which the “polymerase ribozyme fitness (log ratio)” value is -2.77.
As for U56A G58A A89C C95G A122C G124C G141C, the figure is -1.54; as for A73U C75U C118G, at most -4.2; as for C54G C75U C95U A147C, -3.31.
As for U6G A28C C76G G92U, the figure is at most -4.2.
As for C27U C54U G83U, the figure is -2.12; as for C51U A60U G84A A98G A121C G143U A147C, at most -4.2.
In the case of A41C G59U C87U A120U A122C G124U U146C, the “polymerase ribozyme fitness (log ratio)” value is -2.2.
For C18U U53A C54U U56A G70A C85U C116U G141C, the “polymerase ribozyme fitness (log ratio)” value is at most -4.2.
As for G11A C14G A66U C87A A106U G143C, the figure is at most -4.2.
With U4G A22U A37C C95A C96A U127G the figure was at most -4.2.
With U31G A37U A41C C75U C76G C96U C105U G117U G133U U134C the figure was at most -4.2; with A41C C116G, -0.175; with G42U A73G U78G C93A U146A, at most -4.2.
C35U C76G A89U A97G: the “polymerase ribozyme fitness (log ratio)” value was at most -4.2.
As for C38G C54U C57U G141C, the figure is -2.86.
With C35U G50U U56A G68A C85U A137C the figure was at most -4.2; with A49U G58C, -0.846.
With U56A G58C C93A G124A the figure was -2.36; with G86C G124A U144A, -2.44; with A3G A12C A39G A97U G133A G143C, at most -4.2.
As for A60G, the “polymerase ribozyme fitness (log ratio)” value was determined as 0.0111.
With U7A G71A C96G the figure was at most -4.2; with C72U C76A G84A C87U A91G A106G C125A, at most -4.2.
As for C14G G88U C93A C116G U144A, the figure is at most -4.2; as for A19G C54G, -1.84.
With A64G A150U the figure was -3.42.
As to C36G A47G U55C G84U C149A, the “polymerase ribozyme fitness (log ratio)” value is at most -4.2.
Regarding C14A U135A A142C, the “polymerase ribozyme fitness (log ratio)” value was -3.9.
With C75G C85G A147U the figure was at most -4.2.
With C14U C18G C32G A66C C93U A98U the figure was at most -4.2.
With U56A G152A the figure was -2.52; with C51U U55A U56A G58C U82A A150C, at most -4.2.
Consider C27G A40U G58A A73C C76U C95G, for which the “polymerase ribozyme fitness (log ratio)” value was at most -4.2.
With A20C U82A A150G, the “polymerase ribozyme fitness (log ratio)” value was -0.662.
With U53A A66C A89G G94C C99G, the “polymerase ribozyme fitness (log ratio)” value was -3.94.
As for U6G G65U G71C G94A C103G A122G, the figure is at most -4.2; as for A19U C63U C96U C105G C116A, -2.98; as for G42U C76G G80A C95G, at most -4.2.
In the case of U13G A47C G88C A91U C105U, the “polymerase ribozyme fitness (log ratio)” value was at most -4.2.
With A47C U82A the figure was -0.366; with A41C U61A C76A A91U C99A A110U A150C, at most -4.2.
With U61A G140A the figure was at most -4.2; with U55A G117A, -0.438.
With G88C C95U the figure was at most -4.2.
As to G11A G25C G50A A52G C75G U90G C103U U144A, the “polymerase ribozyme fitness (log ratio)” value was at most -4.2.
With C8U U82G C87A the figure was at most -4.2; with G11A G94U A113C C114U A122C G143U C149U, at most -4.2.
With C103A A115U the figure was -3.09; with C93A G140A, -4.11; with A39C G141U, -2.91.
With C54A C96G C105U U144C the figure was -2.85; with U13G A52G, -1.06.
For the variant U55G U56A U82C, the “polymerase ribozyme fitness (log ratio)” value was -1.09.
With C69A A73C G86A A119C U145A the figure was at most -4.2; with U4G C76U G84A C95U U111G, at most -4.2; with C51A A52G, -0.455.
Take A29U G59C G62U C95U C116A: the “polymerase ribozyme fitness (log ratio)” value was at most -4.2.
As for U7G C76A C85G C95A A121U, the figure is at most -4.2; as for C35G C105U C129A A150C, -4.14; as for A39C A89U C116U, -2.02.
As for A39U C85G C96A A107G, the figure is at most -4.2; as for A40U G50C G67C C103A C129G U144G, at most -4.2.
Take G83A C95G: the “polymerase ribozyme fitness (log ratio)” value is -1.23.
As for C27U A47G A52C G83A U146G, the figure is -3.62.
As for A40U C57G C105A, the “polymerase ribozyme fitness (log ratio)” value is -0.98.
As for A41U C57U G80A, the figure is -1.12; as for U13C C27U G50C G92C, -4.02.
For the variant C27U C95U U102A, the “polymerase ribozyme fitness (log ratio)” value is -2.66.
As for G92A U144C A147U, the figure is -3.46.
As for G86A G143A, the figure is -1.25.
As for A22C A23C C36G C79A C125A G140U, the figure is -3.55.
For the variant A20U C54A A106C, the “polymerase ribozyme fitness (log ratio)” value was -3.99.
With C75U U90C A91U C93G G94U A98C the figure was at most -4.2; with A12U A21U C38A A106U C116A A119G, -3.18; with U7G C35A A40G U77C A150U, at most -4.2.
Consider C38G U56A C93U U104G A122C, for which the “polymerase ribozyme fitness (log ratio)” value is -2.96.
For C8A A64C C72A C95U C116G A121C A138C, the “polymerase ribozyme fitness (log ratio)” value is at most -4.2.
With A12U A22U C27U A40G C69A U78A G94A A115C A119U G124A the figure was at most -4.2.
With U45G C114U the figure was -2.91.
Take U6A A23C G68U G100U C131U G143U: the “polymerase ribozyme fitness (log ratio)” value was at most -4.2.
With A40U C114U G141C G152U the figure was -3.44; with G11A C54A, -2.47.
For A12U G86A U101G, the “polymerase ribozyme fitness (log ratio)” value was -0.714.
With A19C C51A C75A C93A G117C the figure was at most -4.2.
With A49G C95U the figure was -0.995.
With G50C A73G C87A the figure was at most -4.2.
As to C5G A23G G50C A52C C69G A119G, the “polymerase ribozyme fitness (log ratio)” value is at most -4.2.
As for A21G U151C, the figure is -3.8; as for C14G C51U U61A, -4.06; as for A12U C35A U44A G92C U127A C129G G143A U151C, at most -4.2.
As for G65A C85U A97U, the figure is -2.46.
Turning to C18U G83A, the “polymerase ribozyme fitness (log ratio)” value was -0.637.
As for A47U A73U A147C, the figure is -2.13.
In the case of U55A A138G, the “polymerase ribozyme fitness (log ratio)” value is -2.51.
With C35U G50C the figure was -3.9; with A17G C63A C118G A142U, -2.32; with A91G A120G, -2.98.
With U7A C14U U31A C57G U61A A89U U90C C99A A115U A122C the figure was at most -4.2; with U61A C87U, -2.83.
With C76A C95U, the “polymerase ribozyme fitness (log ratio)” value is 0.252.
As to A37G U77A C87A C99U G140C A147U, the “polymerase ribozyme fitness (log ratio)” value is at most -4.2.
With A19C A26C the figure was -1.76; with A52C G58A C93A C118U, -3.55; with G86A C118U G141C, -1.77.
With A17C G50A G84U G143C U144G the figure was at most -4.2; with A52C G58U G59A C85A, -2.15; with C5G U78C G84A G136U, -3.39.
With C35U U44A A49C G74U G80A U109G A121G the figure was at most -4.2; with C125U A150U, -0.413.
A19U G48A C116G U127G: the “polymerase ribozyme fitness (log ratio)” value was at most -4.2.
With A37C U55G G94A the figure was 0.0696.
As to C5G G46A G92C, the “polymerase ribozyme fitness (log ratio)” value is -4.13.
As for U55C A73U A97U U144G, the figure is -1.48.
With C8G U53C G58C C79U A89G U139C the figure was at most -4.2; with U56A G58A C87G G133U, at most -4.2; with U31A A41U G83C U111G G136C, at most -4.2.
As for A47C C93U, the figure is -1.69; as for C10G U31A U44C C57A G59U U61G G92C A107U, at most -4.2.
Take A12U G92A A98G C125G G128U: the “polymerase ribozyme fitness (log ratio)” value was at most -4.2.
As for C114U G140C A150C, the figure is at most -4.2; as for C5A A20C C35A G62A C76A C96G G140A G143C, at most -4.2.
With A12G U55A the figure was 0.668; with U53A C93U U130G, at most -4.2.
With A19C A29C U33G C87G C108U U135A U148A the figure was at most -4.2.
For U9A A24U A37C G42C G50C G58A C85G A91C U148A, the “polymerase ribozyme fitness (log ratio)” value is at most -4.2.
As for A29C A52G G83C A106C, the figure is at most -4.2; as for G59A C85U U102G A106C G141A, at most -4.2.
With A24U G25A A39G A60U G83C the figure was at most -4.2.
With C35U G46C C72U G74U C96U A107G the figure was at most -4.2.
On to U6C C105G U144C G152A, for which the “polymerase ribozyme fitness (log ratio)” value is -3.94.
With U15C C93U A122U the figure was -0.873; with A16C U56A C103A G124U G143C, at most -4.2.
With A28G G46A C85A A91G the figure was at most -4.2.
With G59U the figure was -0.206; with U31G G58C G140C, -4; with U56A U102G, -2.4.
With A21C U53A C85A, the “polymerase ribozyme fitness (log ratio)” value was -2.67.
With G58C G140A the figure was -3.51.
With G50C C96G U144C the figure was at most -4.2; with U55A A115G G124U, -0.932.
For the variant C35U C93A C103G, the “polymerase ribozyme fitness (log ratio)” value is at most -4.2.
As for C76U G84U A98U, the “polymerase ribozyme fitness (log ratio)” value was -1.66.
As for A17U A40C G58C C76U G84U U144G, the figure is -0.372; as for A89G, -0.999.
With A60G A73U C93U the figure was -1.38; with A47U G86A, -1.08.
With A22C U55G G67A U78A C93G C99A C149G the figure was at most -4.2; with A3G A30G C38A G83A U101G, at most -4.2.
With C54A C118A, the “polymerase ribozyme fitness (log ratio)” value was -1.5.
As for A3G C18A C93G C123U C131U, the figure is -1.32; as for C93G A97U U145G, at most -4.2.
With G25C C79A G84U A97C the figure was at most -4.2.
As for C36U A73U A138U G140C, the figure is at most -4.2; as for G59C G81C G84C, at most -4.2.
On to C96U U151G, for which the “polymerase ribozyme fitness (log ratio)” value was -4.05.
With G62A G70A G71A G80C C87U C108U the figure was at most -4.2.
With U4A C43U G65U U77C U111G the figure was at most -4.2; with A28U G67U C103A, at most -4.2.
With C87U U102C, the “polymerase ribozyme fitness (log ratio)” value is -1.21.
For A29U G58C G84A C105U A113C, the “polymerase ribozyme fitness (log ratio)” value was at most -4.2.
Regarding C54G G140A U146A, the “polymerase ribozyme fitness (log ratio)” value was at most -4.2.
As for C8G C54G C85U A121U C131A G136U A137G, the figure is at most -4.2; as for A29U A41U A47C C114G C132U, at most -4.2; as for C85G A147C, -1.67.
As to C32G C85U, the “polymerase ribozyme fitness (log ratio)” value was -3.86.
Take A40U A106G C131U: the “polymerase ribozyme fitness (log ratio)” value turned out to be 1.54.

Source of the values: the RNAGym collection of RNA variant scans (doi:10.1073/pnas.2313332121).
